The stoichiometry N is a count of units in the complex or per binding partner.

The target of assay [1] is PfCCT MΔK^R681H, R681H point mutant of the second catalytic domain construct of Plasmodium falciparum CTP:phosphocholine cytidylyltransferase (528–795, Δ720–737) (Plasmodium falciparum). The experiment in a line: native MS; native electrospray, QTOF, positive ion mode; 5 mM NH4HCO3 pH 7.2; gel filtered protein at 0.4 μM monomer concentration; source temperature 80°C; dimer to monomers; 3 samples from different expressions.

For assay [2], the target named is PfCCT MΔK^WT, second catalytic domain construct of Plasmodium falciparum CTP:phosphocholine cytidylyltransferase (528–795, Δ720–737) (Plasmodium falciparum). The assay is described as above.

“PfCCT MΔK^R681H, R681H point mutant of the second catalytic domain construct of Plasmodium falciparum CTP:phosphocholine cytidylyltransferase (528–795, Δ720–737) (domain or fragment)”: the fold decrease of the dimer:monomer abundance ratio against PfCCT MΔK^WT in assay [1] is 20 times lower.

As to “PfCCT MΔK^WT, second catalytic domain construct of Plasmodium falciparum CTP:phosphocholine cytidylyltransferase (528–795, Δ720–737) (domain or fragment)”, the stoichiometry N in assay [2] is 2.

(Values after publication PMC4470507.)
